Reference: US20240327497A1
Values joined by “and” are separate entries in the source; they are usually repeats but may differ in a detail not shown here. Identical values can stand only once. Each block holds one binder with its values, some of them ahead of it.

Legend:
[1] = molecular target: canine FcRn (FcRn large subunit with canine beta-2-microglobulin) (canine); assay: SPR pH 5.5, SASA-Fc captured on BSA, FcRn 200 nM
[2] = molecular target: canine FcRn (FcRn large subunit with canine beta-2-microglobulin) (canine); assay: SPR pH 5.5, SASA-Fc captured on BSA, FcRn 400 nM
[3] = molecular target: canine FcRn (FcRn large subunit with canine beta-2-microglobulin) (canine); assay: SPR pH 5.5, SASA-Fc captured on BSA, FcRn 100-800 nM
[4] = molecular target: canine FcRn (FcRn large subunit with canine beta-2-microglobulin) (canine); assay: SPR pH 5.5, SASA-Fc captured on BSA, FcRn 200 nM; remark: listed apart in the source
[5] = molecular target: canine FcRn (FcRn large subunit with canine beta-2-microglobulin) (canine); assay: SPR pH 5.5, SASA-Fc captured on BSA, FcRn 200 nM; remark: listed apart in the source
[6] = molecular target: canine FcRn (FcRn large subunit with canine beta-2-microglobulin) (canine); assay: SPR pH 6.0, SASA-Fc captured on BSA, FcRn 200 nM
[7] = molecular target: canine FcRn (FcRn large subunit with canine beta-2-microglobulin) (canine); assay: SPR pH 6.0, SASA-Fc captured on BSA, FcRn 100-800 nM

B1: canine IgGB Fc (CH2-CH3) N434A with N-terminal SASA tag (Fc fusion, part only; not given: SASA tag, not shown: another chain or arm of the molecule; small tags and cut ends)
Fc: APEMLGGPSVFIFPPKPKDTLLIARTPEVTCVVVDLDPEDPEVQISWFVDGKQMQTAKTQPREEQFNGTYRVVSVLPIGHQDWLKGKQFTCKVNNKALPSPIERTISKARGQAHQPSVYVLPPSREELSKNTVSLTCLIKDFFPPDIDVEWQSNGQQEPESKYRTTPPQLDEDGSYFLYSKLSVDKSRWQRGDTFICAVMHEALHAHYTQESLSHSPGK
Kd [1]: 573 nM and 629 nM | koff [1]: 0.156 s⁻¹ and 0.164 s⁻¹ | kon [1]: 272000 M⁻¹ s⁻¹ and 261000 M⁻¹ s⁻¹ | Kd [2]: 457 nM and 494 nM | WT KD Avg/Variant KD [2]: 1.24 and 1.14 | koff [2]: 0.237 s⁻¹ and 0.477 s⁻¹ | kon [2]: 518000 M⁻¹ s⁻¹ and 966000 M⁻¹ s⁻¹

B2: canine IgGB Fc (CH2-CH3) A426H with N-terminal SASA tag (Fc fusion, part only; not given: SASA tag, not shown: another chain or arm of the molecule; small tags and cut ends)
Fc: APEMLGGPSVFIFPPKPKDTLLIARTPEVTCVVVDLDPEDPEVQISWFVDGKQMQTAKTQPREEQFNGTYRVVSVLPIGHQDWLKGKQFTCKVNNKALPSPIERTISKARGQAHQPSVYVLPPSREELSKNTVSLTCLIKDFFPPDIDVEWQSNGQQEPESKYRTTPPQLDEDGSYFLYSKLSVDKSRWQRGDTFICHVMHEALHNHYTQESLSHSPGK
Kd [3]: 343 nM | koff [3]: 0.106 s⁻¹ | kon [3]: 308000 M⁻¹ s⁻¹ | Kd [4]: 160 nM and 153 nM | koff [4]: 0.135 s⁻¹ and 0.14 s⁻¹ | kon [4]: 843000 M⁻¹ s⁻¹ and 915000 M⁻¹ s⁻¹

B3: canine IgGB Fc (CH2-CH3) T250E with N-terminal SASA tag (Fc fusion, part only; not given: SASA tag, not shown: another chain or arm of the molecule; small tags and cut ends)
Fc: APEMLGGPSVFIFPPKPKDELLIARTPEVTCVVVDLDPEDPEVQISWFVDGKQMQTAKTQPREEQFNGTYRVVSVLPIGHQDWLKGKQFTCKVNNKALPSPIERTISKARGQAHQPSVYVLPPSREELSKNTVSLTCLIKDFFPPDIDVEWQSNGQQEPESKYRTTPPQLDEDGSYFLYSKLSVDKSRWQRGDTFICAVMHEALHNHYTQESLSHSPGK
Kd [5]: 2480 nM and 1660 nM | koff [5]: 0.284 s⁻¹ and 0.287 s⁻¹ | kon [5]: 114000 M⁻¹ s⁻¹ and 172000 M⁻¹ s⁻¹

B4: canine IgGB Fc (CH2-CH3) N434Y with N-terminal SASA tag (Fc fusion, part only; not given: SASA tag, not shown: another chain or arm of the molecule; small tags and cut ends)
Fc: APEMLGGPSVFIFPPKPKDTLLIARTPEVTCVVVDLDPEDPEVQISWFVDGKQMQTAKTQPREEQFNGTYRVVSVLPIGHQDWLKGKQFTCKVNNKALPSPIERTISKARGQAHQPSVYVLPPSREELSKNTVSLTCLIKDFFPPDIDVEWQSNGQQEPESKYRTTPPQLDEDGSYFLYSKLSVDKSRWQRGDTFICAVMHEALHYHYTQESLSHSPGK
Kd [1]: 15.9 nM | koff [1]: 0.00968 s⁻¹ | kon [1]: 607000 M⁻¹ s⁻¹ | Kd [3]: 29.1 nM | koff [3]: 0.0151 s⁻¹ | kon [3]: 520000 M⁻¹ s⁻¹

B6: canine IgGB Fc (CH2-CH3) A426Y with N-terminal SASA tag (Fc fusion, part only; not given: SASA tag, not shown: another chain or arm of the molecule; small tags and cut ends)
Fc: APEMLGGPSVFIFPPKPKDTLLIARTPEVTCVVVDLDPEDPEVQISWFVDGKQMQTAKTQPREEQFNGTYRVVSVLPIGHQDWLKGKQFTCKVNNKALPSPIERTISKARGQAHQPSVYVLPPSREELSKNTVSLTCLIKDFFPPDIDVEWQSNGQQEPESKYRTTPPQLDEDGSYFLYSKLSVDKSRWQRGDTFICYVMHEALHNHYTQESLSHSPGK
Kd [3]: 389 nM | koff [3]: 0.102 s⁻¹ | kon [3]: 262000 M⁻¹ s⁻¹ | Kd [4]: 146 nM and 143 nM | koff [4]: 0.109 s⁻¹ and 0.112 s⁻¹ | kon [4]: 750000 M⁻¹ s⁻¹ and 785000 M⁻¹ s⁻¹

B9: canine IgGB Fc (CH2-CH3) N434W with N-terminal SASA tag (Fc fusion, part only; not given: SASA tag, not shown: another chain or arm of the molecule; small tags and cut ends)
Fc: APEMLGGPSVFIFPPKPKDTLLIARTPEVTCVVVDLDPEDPEVQISWFVDGKQMQTAKTQPREEQFNGTYRVVSVLPIGHQDWLKGKQFTCKVNNKALPSPIERTISKARGQAHQPSVYVLPPSREELSKNTVSLTCLIKDFFPPDIDVEWQSNGQQEPESKYRTTPPQLDEDGSYFLYSKLSVDKSRWQRGDTFICAVMHEALHWHYTQESLSHSPGK
Kd [1]: 40.4 nM and 75.7 nM | Kd [3]: 101 nM | koff [3]: 0.045 s⁻¹ | kon [3]: 446000 M⁻¹ s⁻¹

B10: canine IgGB Fc (CH2-CH3) A426F with N-terminal SASA tag (Fc fusion, part only; not given: SASA tag, not shown: another chain or arm of the molecule; small tags and cut ends)
Fc: APEMLGGPSVFIFPPKPKDTLLIARTPEVTCVVVDLDPEDPEVQISWFVDGKQMQTAKTQPREEQFNGTYRVVSVLPIGHQDWLKGKQFTCKVNNKALPSPIERTISKARGQAHQPSVYVLPPSREELSKNTVSLTCLIKDFFPPDIDVEWQSNGQQEPESKYRTTPPQLDEDGSYFLYSKLSVDKSRWQRGDTFICFVMHEALHNHYTQESLSHSPGK
Kd [3]: 522 nM | koff [3]: 0.132 s⁻¹ | kon [3]: 253000 M⁻¹ s⁻¹ | Kd [4]: 182 nM and 181 nM | koff [4]: 0.143 s⁻¹ and 0.147 s⁻¹ | kon [4]: 786000 M⁻¹ s⁻¹ and 811000 M⁻¹ s⁻¹

B11: canine IgGB Fc (CH2-CH3) D312P with N-terminal SASA tag (Fc fusion, part only; not given: SASA tag, not shown: another chain or arm of the molecule; small tags and cut ends)
Fc: APEMLGGPSVFIFPPKPKDTLLIARTPEVTCVVVDLDPEDPEVQISWFVDGKQMQTAKTQPREEQFNGTYRVVSVLPIGHQPWLKGKQFTCKVNNKALPSPIERTISKARGQAHQPSVYVLPPSREELSKNTVSLTCLIKDFFPPDIDVEWQSNGQQEPESKYRTTPPQLDEDGSYFLYSKLSVDKSRWQRGDTFICAVMHEALHNHYTQESLSHSPGK
Kd [4]: 291 nM and 439 nM | koff [4]: 0.0894 s⁻¹ and 0.11 s⁻¹ | kon [4]: 307000 M⁻¹ s⁻¹ and 251000 M⁻¹ s⁻¹

B12: canine IgGB Fc (CH2-CH3) N434R with N-terminal SASA tag (Fc fusion, part only; not given: SASA tag, not shown: another chain or arm of the molecule; small tags and cut ends)
Fc: APEMLGGPSVFIFPPKPKDTLLIARTPEVTCVVVDLDPEDPEVQISWFVDGKQMQTAKTQPREEQFNGTYRVVSVLPIGHQDWLKGKQFTCKVNNKALPSPIERTISKARGQAHQPSVYVLPPSREELSKNTVSLTCLIKDFFPPDIDVEWQSNGQQEPESKYRTTPPQLDEDGSYFLYSKLSVDKSRWQRGDTFICAVMHEALHRHYTQESLSHSPGK
Kd [1]: 107 nM and 159 nM | koff [1]: 0.0524 s⁻¹ and 0.0633 s⁻¹ | kon [1]: 488000 M⁻¹ s⁻¹ and 399000 M⁻¹ s⁻¹ | Kd [3]: 182 nM | koff [3]: 0.0801 s⁻¹ | kon [3]: 440000 M⁻¹ s⁻¹

B14: canine IgGB Fc (CH2-CH3) N434S with N-terminal SASA tag (Fc fusion, part only; not given: SASA tag, not shown: another chain or arm of the molecule; small tags and cut ends)
Fc: APEMLGGPSVFIFPPKPKDTLLIARTPEVTCVVVDLDPEDPEVQISWFVDGKQMQTAKTQPREEQFNGTYRVVSVLPIGHQDWLKGKQFTCKVNNKALPSPIERTISKARGQAHQPSVYVLPPSREELSKNTVSLTCLIKDFFPPDIDVEWQSNGQQEPESKYRTTPPQLDEDGSYFLYSKLSVDKSRWQRGDTFICAVMHEALHSHYTQESLSHSPGK
Kd [1]: 924 nM and 1050 nM | koff [1]: 0.207 s⁻¹ and 0.209 s⁻¹ | kon [1]: 225000 M⁻¹ s⁻¹ and 199000 M⁻¹ s⁻¹

Next, values leading:

Kd [6]: 447 nM and 532 nM | koff [6]: 0.134 s⁻¹ and 0.141 s⁻¹ | kon [6]: 300000 M⁻¹ s⁻¹ and 265000 M⁻¹ s⁻¹ | Kd [7]: 386 nM | koff [7]: 0.145 s⁻¹ | kon [7]: 375000 M⁻¹ s⁻¹
B5: canine IgGB Fc (CH2-CH3) Y436H with N-terminal SASA tag (Fc fusion, part only; not given: SASA tag, not shown: another chain or arm of the molecule; small tags and cut ends)
Fc: APEMLGGPSVFIFPPKPKDTLLIARTPEVTCVVVDLDPEDPEVQISWFVDGKQMQTAKTQPREEQFNGTYRVVSVLPIGHQDWLKGKQFTCKVNNKALPSPIERTISKARGQAHQPSVYVLPPSREELSKNTVSLTCLIKDFFPPDIDVEWQSNGQQEPESKYRTTPPQLDEDGSYFLYSKLSVDKSRWQRGDTFICAVMHEALHNHHTQESLSHSPGK

Kd [6]: 127 nM and 118 nM | koff [6]: 0.0982 s⁻¹ and 0.112 s⁻¹ | kon [6]: 774000 M⁻¹ s⁻¹ and 945000 M⁻¹ s⁻¹ | Kd [7]: 565 nM | koff [7]: 0.195 s⁻¹ | kon [7]: 345000 M⁻¹ s⁻¹
B7: canine IgGB Fc (CH2-CH3) T286W with N-terminal SASA tag (Fc fusion, part only; not given: SASA tag, not shown: another chain or arm of the molecule; small tags and cut ends)
Fc: APEMLGGPSVFIFPPKPKDTLLIARTPEVTCVVVDLDPEDPEVQISWFVDGKQMQWAKTQPREEQFNGTYRVVSVLPIGHQDWLKGKQFTCKVNNKALPSPIERTISKARGQAHQPSVYVLPPSREELSKNTVSLTCLIKDFFPPDIDVEWQSNGQQEPESKYRTTPPQLDEDGSYFLYSKLSVDKSRWQRGDTFICAVMHEALHNHYTQESLSHSPGK

Kd [5]: 2590 nM and 2840 nM | koff [5]: 0.258 s⁻¹ and 0.268 s⁻¹ | kon [5]: 99600 M⁻¹ s⁻¹ and 94300 M⁻¹ s⁻¹
B8: canine IgGB Fc (CH2-CH3) T250Q with N-terminal SASA tag (Fc fusion, part only; not given: SASA tag, not shown: another chain or arm of the molecule; small tags and cut ends)
Fc: APEMLGGPSVFIFPPKPKDQLLIARTPEVTCVVVDLDPEDPEVQISWFVDGKQMQTAKTQPREEQFNGTYRVVSVLPIGHQDWLKGKQFTCKVNNKALPSPIERTISKARGQAHQPSVYVLPPSREELSKNTVSLTCLIKDFFPPDIDVEWQSNGQQEPESKYRTTPPQLDEDGSYFLYSKLSVDKSRWQRGDTFICAVMHEALHNHYTQESLSHSPGK

Kd [6]: 174 nM and 208 nM | koff [6]: 0.0565 s⁻¹ and 0.103 s⁻¹ | kon [6]: 324000 M⁻¹ s⁻¹ and 496000 M⁻¹ s⁻¹ | Kd [7]: 777 nM | koff [7]: 0.253 s⁻¹ | kon [7]: 325000 M⁻¹ s⁻¹
B13: canine IgGB Fc (CH2-CH3) T286L with N-terminal SASA tag (Fc fusion, part only; not given: SASA tag, not shown: another chain or arm of the molecule; small tags and cut ends)
Fc: APEMLGGPSVFIFPPKPKDTLLIARTPEVTCVVVDLDPEDPEVQISWFVDGKQMQLAKTQPREEQFNGTYRVVSVLPIGHQDWLKGKQFTCKVNNKALPSPIERTISKARGQAHQPSVYVLPPSREELSKNTVSLTCLIKDFFPPDIDVEWQSNGQQEPESKYRTTPPQLDEDGSYFLYSKLSVDKSRWQRGDTFICAVMHEALHNHYTQESLSHSPGK

Kd [6]: 157 nM and 185 nM | koff [6]: 0.0527 s⁻¹ and 0.061 s⁻¹ | kon [6]: 336000 M⁻¹ s⁻¹ and 330000 M⁻¹ s⁻¹ | Kd [7]: 616 nM | koff [7]: 0.19 s⁻¹ | kon [7]: 309000 M⁻¹ s⁻¹
B15: canine IgGB Fc (CH2-CH3) T286F with N-terminal SASA tag (Fc fusion, part only; not given: SASA tag, not shown: another chain or arm of the molecule; small tags and cut ends)
Fc: APEMLGGPSVFIFPPKPKDTLLIARTPEVTCVVVDLDPEDPEVQISWFVDGKQMQFAKTQPREEQFNGTYRVVSVLPIGHQDWLKGKQFTCKVNNKALPSPIERTISKARGQAHQPSVYVLPPSREELSKNTVSLTCLIKDFFPPDIDVEWQSNGQQEPESKYRTTPPQLDEDGSYFLYSKLSVDKSRWQRGDTFICAVMHEALHNHYTQESLSHSPGK
